The numbers were not newly measured in publication PMC6406280, which cites them from elsewhere.

The target in one data set is T1, thrombin (UniProt P00734+P00734). Nature of the data set: thrombin inhibition (apparent Ki). As to conditions: no binding assay done in this paper (SEC, CD/UV melting, analysis of published structures); conditions of the cited assays not in the material.
Regarding CACTGGTAGGTTGGGTAGGGTGGGGCCAGTG [jja], the Ki is 1.2 nM.
CACTGGTAGGTTGGGTAGGGTGGTCCAGTG [jaa]: the Ki was 1.34 nM.
For “CACTGGTAGGTTGGTGTGGTTGGGGCCAGTG [31-TBA (jjj)]”, the Ki is 0.34 nM.
On to CACTGGTAGGTTGGTGTGGTTGGTCCAGTG [jaj], for which the Ki is 14.2 nM.
CGCCTAGGTTGGGTAGGGTGGGGGGCG [aja]: the Ki is 13.2 nM.
For “CGCCTAGGTTGGGTAGGGTGGTGGCG [NU172 (aaa)]”, the Ki was 0.29 nM.
As for CGCCTAGGTTGGTGTGGTTGGGGGGCG [ajj], the Ki was 48.6 nM.
As to CGCCTAGGTTGGTGTGGTTGGTGGCG [aaj], the Ki was 13.4 nM.

Another data set concerns the target T1, thrombin. Nature of the data set: not stated (cited; equals the aKi). As to conditions: no binding assay done in this paper (SEC, CD/UV melting, analysis of published structures); conditions of the cited assays not in the material.
“CGCCTAGGTTGGGTAGGGTGGTGGCG [NU172 (aaa)]”: the Kd – broadly, the concentration at which binding is half-saturated – is 0.29 nM.

The target in a further data set is T1, thrombin. Nature of the data set: not stated (cited). Particulars: modified TBA, not described; no binding assay done in this paper (SEC, CD/UV melting, analysis of published structures); conditions of the cited assays not in the material.
Consider mTBA, for which the Kd was 25 nM.

Staying with this data set, now noted: no binding assay done in this paper (SEC, CD/UV melting, analysis of published structures); conditions of the cited assays not in the material.
Turning to “CGCCTAGGTTGGGTAGGGTGGTGGCG [NU172 (aaa)]”, the Kd was 35 nM.
RE31: the dissociation constant Kd is 0.56 nM.
